We go through one molecule from patent US20230181719A1, “NGR CONJUGATES AND USES THEREOF” (OSPEDALE SAN RAFFAELE S.R.L., priority 2020, published 2023).

One data set concerns WEHI-164 fibrosarcoma. Description: Low-dose treatment in subcutaneous WEHI-164 fibrosarcoma murine model. Type of data set: in vivo. The method, then: FIG. 14. […] Balb/c mice (6-7 weeks old, weighing 18-20 g) were injected, s.c., with 1.5×10^6 WEHI-164 cells in the left flank and treated 5 days after tumor implantation (i.p.) with 25 or 50 pg of murine NGR-TNF or S-NGR-TNF in 0.9% sodium chloride, containing 100 µg/ml endotoxin-free human serum albumin (arrows). A) Tumor volumes after treatment (mean±SE, 6 mice per group). B) Tumor weight at day 15 (cumulative data of the two groups treated with 25 and 50 pg of drugs). *, P<0.05, **P<0.01 by unpaired t test of the area under the curve for each tumor (GraphPad Prism software).
To assess whether the addition of the Ser residue to NGR-TNF might affect its anti-tumor activity at low dose, inventors then analyzed the therapeutic activity of NGR-TNF and S-NGR-TNF (25 or 50 pg, i.p.) using the subcutaneous WEHI-164 fibrosarcoma murine model.

Data set [1] has as its system endothelial EA.hy926 cells. Description: EA.hy926 endothelial cell adhesion assay on protein-coated microtiterplates. Format: cell-based. The method, then: FIG. 12. […] A) Adhesion of endothelial EA.hy926 cells to 96-wells microtiterplates coated with different amounts of murine TNF, NGR-TNF and S-NGR-TNF in 150 mM sodium chloride, 50 mM sodium phosphate buffer, pH 7.4 (PBS) (16 h). Each well was blocked with 2% BSA in PBS containing calcium chloride and magnesium chloride (DPBS, 30 min), seeded with 40.000 endothelial EA.hy926 cells in DPBS supplemented with 0.1% BSA (DPBS-B), and left to incubate for 2 h at 37° C., 5% CO2. After washing with DMEM-B, adherent cells were stained with crystal violet and quantified by spectrophotometric measurements at 570 nm. B) Microtiterplates pre-coated with 1 µg/ml of murine NGR-TNF or S-NGR-TNF in PBS (for 16 h) were incubated 0.1 M ammonium bicarbonate buffer, pH 8.5 (Ambic) at 37° C. for the indicated time to promote NGR deamidation. EA.hy926 cell adhesion assay was then performed as described above.
This behavior likely reflects a further improvement in the CNGRCG (SEQ ID NO: 1) stability when fused to TNF.

In data set [2] the test system is RMA-T lymphoma-bearing mice. Format: in vivo. To be noted: high dose 2 µg and 6 µg. The method, then:
FIG. 13. […] A) Effect of high-dose murine S-NGR-TNF or NGR-TNF on the body weight and tumor volume of RMA-T lymphoma- bearing mice. Six C57BL/6 mice (6-7 weeks old, weighing 18-20 g) were challenged with subcutaneous injection in the left flank of 5 ×10^4 RMA-T cells. Mice bearing RMA lymphomas (6 per group) were treated at day 11 after tumor implantation with 2 µg and 6 µg of murine NGR-TNF or S-NGR-TNF in 0.9% sodium chloride, containing 100 µg/ml endotoxin-free human albumin (i.p.) as indicated (arrows). Animal weights and tumor growth were monitored as indicated. B) Effect of melphalan alone or in combination with low-dose murine S-NGR-TNF on the body weight of RMA-T lymphoma-bearing mice.
To assess the impact of the additional serine residue added to the N-terminus of NGR-TNF on its toxicity and anti-tumor activity inventors injected high-dose NGR-TNF or S-NGR-TNF to mice bearing subcutaneous RMA-T lymphomas (n=6) and evaluated the loss of animal weight. […] Three days later the mice regained the original weight.

The test system of data set [3] is GL261 glioblastoma. Type of data set: in vivo, mice. To be noted: i.p., 5 ng/kg at day 7, 19 and 31. An excerpt:
Effect of S-NGR-mTNF on the […] glioblastoma growth and animal body weight. C57BL/6J mice (9 weeks old, weighing 18-21 g) were intracranially implanted with 2.5 × 10^4 GL21-Luc2 cells.
C) Kaplan-Maier curves of vehicle and S-NGR-mTNF.
Inventors next investigated the antitumor activity of murine S-NGR-TNF (S-NGR-mTNF) in the GL261 glioblastoma model, one of the most frequently used syngeneic murine glioma models. To this aim, inventors have exploited GL261 cells genetically engineered to express luciferase (GL261-luc2). This allows in vivo visualization of tumors growth and response to treatment within the brain by bioluminescence imaging.

For data set [4], the system named is GL261 glioblastoma.
Experimental: Mice bearing GL21-Luc2 glioblastomas (9-10 per group) were treated at day 7, 14 and 21 after tumor implantation with the S-NGR-mTNF (5 ng/kg, about 100 pg/mouse, i.p.). Two hours later, mice were injected with the indicated dose of doxorubicin (doxo, i.p.). […] Tumor growth was monitored by measuring the tumor-associated bioluminescence at day 7, 11, 14, 18, 21, and 28 after the administration of luciferin.
Bioluminescent murine glioma GL21-Luc2 cells, engineered to stably express the firefly luciferase, were orthotopically implanted in C57BL/6J mice (9 weeks-old) into the right striatum (2.5x10^4 cells/mouse). Pharmacological treatments started on the 7 days after tumor cell implantation. Mice were injected, i.p., with 5 ng/Kg dose of S-NGR-TNF (about 100 pg/mice, diluted in 0.9% sodium chloride solution containing 100 µg/ml of HSA), or in combination with doxorubicin (5 mg/Kg) administered 2 h later. Tumor growth was monitored by non-invasive bioluminescence imaging using a PhotonImager RT system (Biospace Lab, France) after luciferase substrate administration (i.p.).
The antitumor activity of S-NGR-mTNF was then investigated in combination of doxorubicin (doxo), a chemotherapeutic drug, in the GL261-luc2 model. To this aims, tumor bearing-animal were treated at day 7, 14 and 21 post tumor implantation with S-NGR-mTNF (5 ng/kg, i.p.) and 2 h later with doxo (i.p., 5 mg/kg, corresponding to about 100 µg/mouse). In parallel, control mice were treated with vehicle or doxo alone.
In another data set the test system is L-M cells. Description: LM-cells cytolytic assay (MTT). Format: cell-based. To be noted: actinomycin D, 20 h, murine proteins. An excerpt: FIG. 8. Biochemical and biological characterization of murine S-NGR-TNF and NGR-TNF. A) SDS-PAGE under reducing (βMe +) and non-reducing conditions (βMe -) of murine S-NGR-TNF, NGR-TNF and TNF. Arrows: bands corresponding to monomeric subunits (mon) and reducible dimers (dim). B) Representative mass spectra of murine NGR-TNF, TNF and S-NGR-TNF as determined by a Q Exactive HF mass spectrometer. Expected average masses are shown. C) Cytotoxic activity of TNF, NGR-TNF and S-NGR-TNF against L-M cells. L-M cells were incubated in DMEM medium supplemented with 2 mM glutamine, 100 U/ml penicillin, 100 µg/ml streptomycin, 0.25 µg/ml amphotericin-B, 10% fetal bovine serum, 2 µg/ml actinomycin D and TNF, NGR-TNF or S-NGR-TNF at the indicated doses (20 h at 37° C., 5% CO2). Cell viability was quantified by standard 3-(4,5-dimethylthiazol-2-yl)-2,5-diphenyltetrazolium bromide (MTT) assay. D) Binding of TNF, NGR-TNF and S-NGR-TNF to sTNF-R1 (Etanercept). Microtiterplates were precoated with or without the indicated amount of sTNF-R1 (for 16 h), washed with PBS, blocked with PBS containing 3% milk, 1% BSA (binding buffer, 1 h) and incubated with the indicated amounts of TNF, NGR-TNF or S-NGR-TNF diluted in binding buffer (for 1.5 h). The binding of each protein to sTNF-R1 was then detected using a polyclonal anti-murine TNF (IP301, 5 µg/ml in binding buffer, 1 h) followed by a polyclonal goat anti-rabbit antibody conjugated with horseradish peroxidase (1:1000 in binding buffer, 1 h) and o-phenylendiammine as chromogenic substrate.
To assess whether the addition of a serine residue to NGR-TNF affects its capability to recognize the TNF receptors and, consequently, its biological activity, inventors then analyzed the cytotoxic activity of TNF, NGR-TNF and S-NGR-TNF in the LM-cells cytolytic assay.

In the next data set the test system is RMA lymphoma. Format: in vivo, mice. As for the experimental part: FIG. 15. […] C57BL/6 mice (6-7 weeks old, weighing 18-20 g) were challenged with subcutaneous injection in the left flank of 7×10^4 RMA cells. Mice bearing RMA lymphomas (6 per group) were treated 10-11 days (after tumor implantation with 100 pg of murine NGR-TNF or S-NGR-TNF (i.p.). Two hours later, the mice were injected with the indicated dose of melphalan (i.p.). All proteins were diluted with 0.9% sodium chloride, containing 100 µg/ml endotoxin-free human albumin. Tumor growth was monitored daily by measuring the tumors with calipers. A-B) Tumor volume change of two independent experiments are shown (mean±SE). […] C) Tumor bearing-animals were treated at day 10 after tumor implantation as indicated above using the indicated dose of S-NGR-TNF and the generic preparation of melphalan (Melphalan-Tillomed, from Tillomed Italia). RMA tumor weight at day 20 are shown (mean±SE). *, P<0.05, **P<0.01 by unpaired t test analysis with the GraphPad Prism software.
Effect of melphalan alone or in combination with low-dose murine S-NGR-TNF on the body weight and tumor growth of RMA-T lymphoma-bearing mice. Six tumor-bearing mice were injected with the indicated doses of S-NGR-TNF (i.p) and, two hours later, with the generic preparation of melphalan (Melphalan-Tillomed) (i.p.).
Finally, to assess whether low-dose S-NGR-TNF can exert synergistic effects with chemotherapy, as previously observed for NGR-TNF, inventors performed in vivo experiments with S-NGR-TNF and NGR-TNF in combination with melphalan, a chemotherapeutic drug, using the murine RMA lymphoma model (FIG. 15).

Where two headings read alike, the source gives them in different places.

B1: S-NGR-TNF: Murine SCNGRCG-TNF fusion protein: serine residue added to the N-terminus of NGR-TNF (SEQ ID NO: 26) (protein)
chain: SCNGRCGLRSSSQNSSDKPVAHVVANHQVEEQLEWLSQRANALLANGMDLKDNQLVVPADGLYLVYSQVLFKGQGCPDYVLLTHTVSRFAISYQEKVNLLSAVKSPCPKDTPEGAELKPWYEPIYLGGVFQLEKGDQLSAEVNLPKYLDFAESGQVYFGVIAL
Turning to B1, the “anti-tumor effects compared to 25 pg of NGR-TNF” value in the data set with WEHI-164 fibrosarcoma (25 pg) is “slightly stronger anti-tumor effects”. Moreover, the toxicity result in the data set with WEHI-164 fibrosarcoma (25 or 50 pg, i.p.) is on record as “No evidence of toxicity”. Moreover, the tumor growth result in the data set with WEHI-164 fibrosarcoma (25 or 50 pg, i.p.) is listed as “delayed tumor growth to similar extent”; in the data set with GL261 glioblastoma [3], “significantly delayed tumor growth”; in the data set with GL261 glioblastoma [4] (S-NGR-mTNF 5 ng/kg with doxo 5 mg/kg (combination therapy)), “could significantly delay tumor growth”. Further, the “EA.hy926 cell adhesion to coated plates” value in data set [1] (plates coated in PBS, no forced deamidation) is reported as “not”. The “EA.hy926 cell adhesion after forced deamidation” value in data set [1] (plates treated with 0.1 M ammonium bicarbonate buffer, pH 8.5, compared to NGR-TNF) is “a longer time of incubation under deamidation conditions was necessary”. Further, the “antitumor effects compared to NGR-TNF” value in data set [2] was “slightly stronger antitumor effects”. Moreover, the “gain of body weight of cured animals” value in the data set with GL261 glioblastoma [3] was “about +15%”. In addition, the “mice with delayed tumor growth” value with GL261 glioblastoma [4] (S-NGR-mTNF 5 ng/kg i.p. and 2 h later doxo 5 mg/kg, day 7, 14, 21) stood at 55%. Also, the “toxicity of doxo, judged from loss of animal weight” value in the data set with GL261 glioblastoma [4] (S-NGR-mTNF 5 ng/kg with doxo 5 mg/kg) is listed as “did not exacerbate the toxicity of doxo”. The EC50 cytotoxic activity result with L-M cells is recorded as “very similar”. Besides, the “efficacy of melphalan in combination” value in the data set on RMA lymphoma (100 pg i.p., melphalan two hours later) is reported as “could enhance the efficacy of melphalan”. Besides, the “antitumor activity of combination” value in the data set with RMA lymphoma (S-NGR-TNF 100 pg with melphalan 50 µg) is given as “significant increase of antitumor activity”. In addition, the “antitumor effect compared to NGR-TNF” value with RMA lymphoma (in combination with melphalan) is listed as “slightly stronger antitumor effect”.
